Details in all cases: both partners purified
The target in experiment [1] is SARS-CoV-2 RBD (cross-reactivity experiments) (SARS-CoV-2, UniProt P0DTC2). Kind of experiment: ELISA.
Experiment [2] concerns the target T1, Horse radish peroxidase conjugated RBD (GenScript SARS-CoV-2 Neutralization Antibody Detection Kit) (SARS-CoV-2, UniProt P0DTC2).
T1 construct: source: bought: GenScript (kit L00847)
Kind of experiment: ELISA.

The target of experiment [3] is SARS-CoV-2 Receptor Binding Domain (RBD) (SARS-CoV-2, UniProt P0DTC2). Kind of experiment: SPR.
For experiment [4], the target named is Biotinylated SARS-CoV-2 S protein RBD with a C-terminal AviTag (SARS-CoV-2, canonical (Wuhan-Hu-1) …, UniProt P0DTC2, biotinylated). Kind of experiment: BLI.

These results are taken from publication PMC7755911 (Scientific Reports, 2020).

B1: NIH-CoVnb-112 (VHH)
VHH: DVQLQESGGGLVQPGGSLRLSCAASGLTLDYYAIGWFRQAPGKEREGVSCISSSDGSTYYADSVKGRFTTSRDNAKNTVYLQMNSLKPEDTAVYYCAAVPSTYYSGTYYYTCHPGGMDYWGKGTQVTVSS
notes: also called lead nanobody candidate; anti-SARS-CoV-2 RBD nanobody; source: E. coli BL21 (DE3), periplasm by osmotic shock, purified (HisTrap, Superdex 75)
As for B1, the binding result in experiment [1] and in experiment [2] was “binds” in each case. In experiment [3], the Kd was 2.1 nM.

B2: VHH72 (VHH)
VHH: QVQLQESGGGLVQAGGSLRLSCAASGRTFSEYAMGWFRQAPGKEREFVATISWSGGSTYYTDSVKGRFTISRDNAKNTVYLQMNSLKPDDTAVYYCAAAGLGTVVSEWDYDYDYWGQGTQVTVSS
On to B2, for which the binding result in experiment [4] is given as “binds”.
